Key:
[1] = target: human gastric mucin MUC6 (human (endogenous in gastric corpus tissue)) (UniProt Q6W4X9); assay: far-Western, overlay or dot blot; as the overlay on fractions B12/C1, but with 30 mM EDTA and no added Ca2+
[2] = target: mucins (PAS-positive high-molecular-mass peak of human gastric extracts, containing MUC5AC and MUC6); assay: SEC + native gel or EMSA; human gastric extracts (conventional extract, extract E1) on Superdex 75 HL, 20 mM Tris-HCl pH 7.0, 30 mM NaCl; fractions analysed by 1% AgGE and Western blot; semi-quantitative TFF2 content

UniProt Q6W4X9, sequence (Q6W4X9 23-2439): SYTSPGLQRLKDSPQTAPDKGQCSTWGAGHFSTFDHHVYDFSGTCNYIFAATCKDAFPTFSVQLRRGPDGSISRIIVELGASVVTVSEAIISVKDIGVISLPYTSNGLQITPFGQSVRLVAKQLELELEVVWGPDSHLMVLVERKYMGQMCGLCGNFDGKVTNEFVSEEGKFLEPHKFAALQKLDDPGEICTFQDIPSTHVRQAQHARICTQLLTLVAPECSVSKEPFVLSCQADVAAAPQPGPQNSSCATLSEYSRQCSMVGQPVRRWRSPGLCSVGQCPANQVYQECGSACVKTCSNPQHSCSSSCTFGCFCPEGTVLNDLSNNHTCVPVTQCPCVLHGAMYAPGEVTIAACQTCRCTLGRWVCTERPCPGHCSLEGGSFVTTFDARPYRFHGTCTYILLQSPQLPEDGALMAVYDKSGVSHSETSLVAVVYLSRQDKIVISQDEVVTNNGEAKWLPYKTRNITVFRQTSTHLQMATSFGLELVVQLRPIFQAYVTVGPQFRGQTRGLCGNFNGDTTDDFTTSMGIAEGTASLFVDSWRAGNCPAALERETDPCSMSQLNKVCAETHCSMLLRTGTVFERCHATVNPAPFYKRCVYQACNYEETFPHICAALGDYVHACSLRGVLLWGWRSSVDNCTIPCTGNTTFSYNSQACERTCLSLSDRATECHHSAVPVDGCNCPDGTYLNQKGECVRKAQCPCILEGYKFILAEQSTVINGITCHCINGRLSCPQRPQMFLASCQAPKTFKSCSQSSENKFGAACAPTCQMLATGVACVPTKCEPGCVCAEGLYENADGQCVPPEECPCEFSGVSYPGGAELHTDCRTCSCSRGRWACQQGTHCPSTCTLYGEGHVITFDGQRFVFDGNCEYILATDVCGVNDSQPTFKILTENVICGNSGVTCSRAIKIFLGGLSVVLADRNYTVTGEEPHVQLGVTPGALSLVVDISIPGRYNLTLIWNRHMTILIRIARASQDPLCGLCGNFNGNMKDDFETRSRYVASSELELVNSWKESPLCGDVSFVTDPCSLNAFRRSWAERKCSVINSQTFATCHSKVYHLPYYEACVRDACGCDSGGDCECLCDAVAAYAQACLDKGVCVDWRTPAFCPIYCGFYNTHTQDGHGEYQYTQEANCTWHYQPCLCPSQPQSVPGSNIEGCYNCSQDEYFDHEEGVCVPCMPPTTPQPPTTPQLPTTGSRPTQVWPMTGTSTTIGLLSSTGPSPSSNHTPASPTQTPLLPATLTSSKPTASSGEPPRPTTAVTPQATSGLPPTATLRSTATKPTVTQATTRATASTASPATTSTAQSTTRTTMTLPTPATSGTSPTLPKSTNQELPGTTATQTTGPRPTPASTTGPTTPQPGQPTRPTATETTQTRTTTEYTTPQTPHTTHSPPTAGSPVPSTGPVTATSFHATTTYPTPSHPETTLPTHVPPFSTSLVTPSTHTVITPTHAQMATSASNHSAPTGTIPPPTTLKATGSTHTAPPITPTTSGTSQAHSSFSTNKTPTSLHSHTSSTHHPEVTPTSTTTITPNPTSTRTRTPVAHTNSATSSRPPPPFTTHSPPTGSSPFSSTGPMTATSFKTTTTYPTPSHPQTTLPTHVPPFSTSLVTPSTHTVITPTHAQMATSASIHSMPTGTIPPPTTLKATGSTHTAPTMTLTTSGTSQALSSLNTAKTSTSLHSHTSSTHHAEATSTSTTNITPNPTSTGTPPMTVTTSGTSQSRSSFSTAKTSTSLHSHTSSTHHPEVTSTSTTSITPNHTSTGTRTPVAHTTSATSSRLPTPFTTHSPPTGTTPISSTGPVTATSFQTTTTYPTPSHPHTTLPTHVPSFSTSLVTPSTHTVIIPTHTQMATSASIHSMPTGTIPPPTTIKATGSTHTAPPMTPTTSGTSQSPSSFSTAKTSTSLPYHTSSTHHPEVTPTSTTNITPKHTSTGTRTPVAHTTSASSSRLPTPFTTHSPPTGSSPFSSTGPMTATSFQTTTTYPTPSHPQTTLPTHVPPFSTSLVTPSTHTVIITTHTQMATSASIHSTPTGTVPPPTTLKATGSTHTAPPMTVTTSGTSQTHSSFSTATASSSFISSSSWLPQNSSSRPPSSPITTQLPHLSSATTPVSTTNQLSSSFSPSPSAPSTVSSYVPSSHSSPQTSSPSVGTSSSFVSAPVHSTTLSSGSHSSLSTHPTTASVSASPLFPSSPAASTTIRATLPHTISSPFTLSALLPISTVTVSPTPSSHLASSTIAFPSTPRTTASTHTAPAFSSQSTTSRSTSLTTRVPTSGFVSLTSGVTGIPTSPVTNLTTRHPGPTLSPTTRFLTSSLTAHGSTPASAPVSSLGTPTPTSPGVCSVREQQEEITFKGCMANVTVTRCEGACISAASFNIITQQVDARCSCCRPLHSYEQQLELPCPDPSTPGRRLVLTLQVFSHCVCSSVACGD

relative amount of TFF2 bound with 30 mM EDTA [1] [%] | percent of TFF2 in the high-molecular-mass form (extract E1) [2] [%] | Molecule
10 |  | 125I-labeled recombinant human glycosylated TFF2 (from UniProt Q03403 24-129) (natural protein)
 | 86 | human gastric TFF2 (endogenous) (natural protein, mainly N-glycosylated, to a minor extent non-glycosylated) EKPSPCQCSRLSPHNRTNCGFPGITSDQCFDNGCCFDSSVTGVPWCFHPLPKQESDQCVMEVSDRRNCGYPGISPEECASRKCCFSNFIFEVPWCFFPKSVEDCHY
